Measured values reported in the supplement of paper PMC6755084.

B1: F1*; the commonest letter at each place (parent)
chain: GAGACCGCAACTGAAAAGTTGTTATCACTTGTCGTAAGACACTTTGGATGGGTTGAAGTTCTGCACGTAGAAGCAAAAGGC

Variants of: B1
Experiment: fraction ligated after 30 min (ligated reads / total reads); higher = more ligase activity
Settings: with F1*sub RNA substrate (template-directed ligation), 42 °C
In short: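 Ribozyme variants were transcribed with T7 from PCR-amplified oligo-pool templates and gel-purified. Ligated and unligated bands, separated on gel, were reverse transcribed with barcoded primers and sequenced on a MiSeq, with core bases filtered at quality ≥20. Fraction ligated per variant was computed as ligated reads divided by total reads.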

Variant | fraction ligated
GAGACCGCAACTGAAAAGTTGTTATCACTTGTCGTAACCCACTTTGGATGGGTTGAAGTTCTGCACGTAGAAGCAAAAGGC [G38C A39C] | 0.752
GAGACCGCAACTGAAAAGTTGTTATCACTTGTCGTAACGCACTTTGGATGGGTTGAAGTTCTGCACGTAGAAGCAAAAGGC [G38C A39G] | 0.811
GAGACCGCAACTGAAAAGTTGTTATCACTTGTCGTAACTCACTTTGGATGGGTTGAAGTTCTGCACGTAGAAGCAAAAGGC [G38C A39T] | 0.806
GAGACCGCAACTGAAAAGTTGTTATCACTTGTCGTAACACCCTTTGGATGGGTTGAAGTTCTGCACGTAGAAGCAAAAGGC [G38C A41C] | 0.807
GAGACCGCAACTGAAAAGTTGTTATCACTTGTCGTAACACGCTTTGGATGGGTTGAAGTTCTGCACGTAGAAGCAAAAGGC [G38C A41G] | 0.793
GAGACCGCAACTGAAAAGTTGTTATCACTTGTCGTAACACTCTTTGGATGGGTTGAAGTTCTGCACGTAGAAGCAAAAGGC [G38C A41T] | 0.785
GAGACCGCAACTGAAAAGTTGTTATCACTTGTCGTAACACACTTTGGCTGGGTTGAAGTTCTGCACGTAGAAGCAAAAGGC [G38C A48C] | 0.269
GAGACCGCAACTGAAAAGTTGTTATCACTTGTCGTAACACACTTTGGGTGGGTTGAAGTTCTGCACGTAGAAGCAAAAGGC [G38C A48G] | 0.53
GAGACCGCAACTGAAAAGTTGTTATCACTTGTCGTAACACACTTTGGTTGGGTTGAAGTTCTGCACGTAGAAGCAAAAGGC [G38C A48T] | 0.0108
GAGACCGCAACTGAAAAGTTGTTATCACTTGTCGTAACACACTTTGGATGGGTTGCAGTTCTGCACGTAGAAGCAAAAGGC [G38C A56C] | 0.209
GAGACCGCAACTGAAAAGTTGTTATCACTTGTCGTAACACACTTTGGATGGGTTGGAGTTCTGCACGTAGAAGCAAAAGGC [G38C A56G] | 0.7
GAGACCGCAACTGAAAAGTTGTTATCACTTGTCGTAACACACTTTGGATGGGTTGTAGTTCTGCACGTAGAAGCAAAAGGC [G38C A56T] | 0.813
GAGACCGCAACTGAAAAGTTGTTATCACTTGTCGTAACACACTTTGGATGGGTTGACGTTCTGCACGTAGAAGCAAAAGGC [G38C A57C] | 0.824
GAGACCGCAACTGAAAAGTTGTTATCACTTGTCGTAACACACTTTGGATGGGTTGAGGTTCTGCACGTAGAAGCAAAAGGC [G38C A57G] | 0.87
GAGACCGCAACTGAAAAGTTGTTATCACTTGTCGTAACACACTTTGGATGGGTTGATGTTCTGCACGTAGAAGCAAAAGGC [G38C A57T] | 0.828
GAGACCGCAACTGAAAAGTTGTTATCACTTGTCGTAACAAACTTTGGATGGGTTGAAGTTCTGCACGTAGAAGCAAAAGGC [G38C C40A] | 0.811
GAGACCGCAACTGAAAAGTTGTTATCACTTGTCGTAACAGACTTTGGATGGGTTGAAGTTCTGCACGTAGAAGCAAAAGGC [G38C C40G] | 0.813
GAGACCGCAACTGAAAAGTTGTTATCACTTGTCGTAACATACTTTGGATGGGTTGAAGTTCTGCACGTAGAAGCAAAAGGC [G38C C40T] | 0.802
GAGACCGCAACTGAAAAGTTGTTATCACTTGTCGTAACACAATTTGGATGGGTTGAAGTTCTGCACGTAGAAGCAAAAGGC [G38C C42A] | 0.857
GAGACCGCAACTGAAAAGTTGTTATCACTTGTCGTAACACAGTTTGGATGGGTTGAAGTTCTGCACGTAGAAGCAAAAGGC [G38C C42G] | 0.843
GAGACCGCAACTGAAAAGTTGTTATCACTTGTCGTAACACATTTTGGATGGGTTGAAGTTCTGCACGTAGAAGCAAAAGGC [G38C C42T] | 0.841
GAGACCGCAACTGAAAAGTTGTTATCACTTGTCGTAACACACTTTAGATGGGTTGAAGTTCTGCACGTAGAAGCAAAAGGC [G38C G46A] | 0.791
GAGACCGCAACTGAAAAGTTGTTATCACTTGTCGTAACACACTTTCGATGGGTTGAAGTTCTGCACGTAGAAGCAAAAGGC [G38C G46C] | 0.523

Variant | fraction ligated
GAGACCGCAACTGAAAAGTTGTTATCACTTGTCGTAACACACTTTTGATGGGTTGAAGTTCTGCACGTAGAAGCAAAAGGC [G38C G46T] | 0.697
GAGACCGCAACTGAAAAGTTGTTATCACTTGTCGTAACACACTTTGAATGGGTTGAAGTTCTGCACGTAGAAGCAAAAGGC [G38C G47A] | 0.306
GAGACCGCAACTGAAAAGTTGTTATCACTTGTCGTAACACACTTTGCATGGGTTGAAGTTCTGCACGTAGAAGCAAAAGGC [G38C G47C] | 0.0356
GAGACCGCAACTGAAAAGTTGTTATCACTTGTCGTAACACACTTTGTATGGGTTGAAGTTCTGCACGTAGAAGCAAAAGGC [G38C G47T] | 0.045
GAGACCGCAACTGAAAAGTTGTTATCACTTGTCGTAACACACTTTGGATAGGTTGAAGTTCTGCACGTAGAAGCAAAAGGC [G38C G50A] | 0.101
GAGACCGCAACTGAAAAGTTGTTATCACTTGTCGTAACACACTTTGGATCGGTTGAAGTTCTGCACGTAGAAGCAAAAGGC [G38C G50C] | 0.0192
GAGACCGCAACTGAAAAGTTGTTATCACTTGTCGTAACACACTTTGGATTGGTTGAAGTTCTGCACGTAGAAGCAAAAGGC [G38C G50T] | 0.314
GAGACCGCAACTGAAAAGTTGTTATCACTTGTCGTAACACACTTTGGATGGGTTAAAGTTCTGCACGTAGAAGCAAAAGGC [G38C G55A] | 0.826
GAGACCGCAACTGAAAAGTTGTTATCACTTGTCGTAACACACTTTGGATGGGTTCAAGTTCTGCACGTAGAAGCAAAAGGC [G38C G55C] | 0.321
GAGACCGCAACTGAAAAGTTGTTATCACTTGTCGTAACACACTTTGGATGGGTTTAAGTTCTGCACGTAGAAGCAAAAGGC [G38C G55T] | 0.768
GAGACCGCAACTGAAAAGTTGTTATCACTTGTCGTAACACACATTGGATGGGTTGAAGTTCTGCACGTAGAAGCAAAAGGC [G38C T43A] | 0.825
GAGACCGCAACTGAAAAGTTGTTATCACTTGTCGTAACACACCTTGGATGGGTTGAAGTTCTGCACGTAGAAGCAAAAGGC [G38C T43C] | 0.822
GAGACCGCAACTGAAAAGTTGTTATCACTTGTCGTAACACACGTTGGATGGGTTGAAGTTCTGCACGTAGAAGCAAAAGGC [G38C T43G] | 0.812
GAGACCGCAACTGAAAAGTTGTTATCACTTGTCGTAACACACTATGGATGGGTTGAAGTTCTGCACGTAGAAGCAAAAGGC [G38C T44A] | 0.845
GAGACCGCAACTGAAAAGTTGTTATCACTTGTCGTAACACACTCTGGATGGGTTGAAGTTCTGCACGTAGAAGCAAAAGGC [G38C T44C] | 0.819
GAGACCGCAACTGAAAAGTTGTTATCACTTGTCGTAACACACTGTGGATGGGTTGAAGTTCTGCACGTAGAAGCAAAAGGC [G38C T44G] | 0.839
GAGACCGCAACTGAAAAGTTGTTATCACTTGTCGTAACACACTTAGGATGGGTTGAAGTTCTGCACGTAGAAGCAAAAGGC [G38C T45A] | 0.551
GAGACCGCAACTGAAAAGTTGTTATCACTTGTCGTAACACACTTCGGATGGGTTGAAGTTCTGCACGTAGAAGCAAAAGGC [G38C T45C] | 0.0602
GAGACCGCAACTGAAAAGTTGTTATCACTTGTCGTAACACACTTGGGATGGGTTGAAGTTCTGCACGTAGAAGCAAAAGGC [G38C T45G] | 0.0325
GAGACCGCAACTGAAAAGTTGTTATCACTTGTCGTAACACACTTTGGAAGGGTTGAAGTTCTGCACGTAGAAGCAAAAGGC [G38C T49A] | 0.233
GAGACCGCAACTGAAAAGTTGTTATCACTTGTCGTAACACACTTTGGACGGGTTGAAGTTCTGCACGTAGAAGCAAAAGGC [G38C T49C] | 0.0586
GAGACCGCAACTGAAAAGTTGTTATCACTTGTCGTAACACACTTTGGAGGGGTTGAAGTTCTGCACGTAGAAGCAAAAGGC [G38C T49G] | 0.255
GAGACCGCAACTGAAAAGTTGTTATCACTTGTCGTAATACACTTTGGATGGGTTGAAGTTCTGCACGTAGAAGCAAAAGGC [G38T] | 0.852

Variant | fraction ligated
GAGACCGCAACTGAAAAGTTGTTATCACTTGTCGTAATCCACTTTGGATGGGTTGAAGTTCTGCACGTAGAAGCAAAAGGC [G38T A39C] | 0.79
GAGACCGCAACTGAAAAGTTGTTATCACTTGTCGTAATGCACTTTGGATGGGTTGAAGTTCTGCACGTAGAAGCAAAAGGC [G38T A39G] | 0.798
GAGACCGCAACTGAAAAGTTGTTATCACTTGTCGTAATTCACTTTGGATGGGTTGAAGTTCTGCACGTAGAAGCAAAAGGC [G38T A39T] | 0.817
GAGACCGCAACTGAAAAGTTGTTATCACTTGTCGTAATACCCTTTGGATGGGTTGAAGTTCTGCACGTAGAAGCAAAAGGC [G38T A41C] | 0.785
GAGACCGCAACTGAAAAGTTGTTATCACTTGTCGTAATACGCTTTGGATGGGTTGAAGTTCTGCACGTAGAAGCAAAAGGC [G38T A41G] | 0.792
GAGACCGCAACTGAAAAGTTGTTATCACTTGTCGTAATACTCTTTGGATGGGTTGAAGTTCTGCACGTAGAAGCAAAAGGC [G38T A41T] | 0.798
GAGACCGCAACTGAAAAGTTGTTATCACTTGTCGTAATACACTTTGGCTGGGTTGAAGTTCTGCACGTAGAAGCAAAAGGC [G38T A48C] | 0.757
GAGACCGCAACTGAAAAGTTGTTATCACTTGTCGTAATACACTTTGGGTGGGTTGAAGTTCTGCACGTAGAAGCAAAAGGC [G38T A48G] | 0.792
GAGACCGCAACTGAAAAGTTGTTATCACTTGTCGTAATACACTTTGGTTGGGTTGAAGTTCTGCACGTAGAAGCAAAAGGC [G38T A48T] | 0.129
GAGACCGCAACTGAAAAGTTGTTATCACTTGTCGTAATACACTTTGGATGGGTTGCAGTTCTGCACGTAGAAGCAAAAGGC [G38T A56C] | 0.745
GAGACCGCAACTGAAAAGTTGTTATCACTTGTCGTAATACACTTTGGATGGGTTGGAGTTCTGCACGTAGAAGCAAAAGGC [G38T A56G] | 0.806
GAGACCGCAACTGAAAAGTTGTTATCACTTGTCGTAATACACTTTGGATGGGTTGTAGTTCTGCACGTAGAAGCAAAAGGC [G38T A56T] | 0.826
GAGACCGCAACTGAAAAGTTGTTATCACTTGTCGTAATACACTTTGGATGGGTTGACGTTCTGCACGTAGAAGCAAAAGGC [G38T A57C] | 0.811
GAGACCGCAACTGAAAAGTTGTTATCACTTGTCGTAATACACTTTGGATGGGTTGAGGTTCTGCACGTAGAAGCAAAAGGC [G38T A57G] | 0.862
GAGACCGCAACTGAAAAGTTGTTATCACTTGTCGTAATACACTTTGGATGGGTTGATGTTCTGCACGTAGAAGCAAAAGGC [G38T A57T] | 0.812
GAGACCGCAACTGAAAAGTTGTTATCACTTGTCGTAATAAACTTTGGATGGGTTGAAGTTCTGCACGTAGAAGCAAAAGGC [G38T C40A] | 0.836
GAGACCGCAACTGAAAAGTTGTTATCACTTGTCGTAATAGACTTTGGATGGGTTGAAGTTCTGCACGTAGAAGCAAAAGGC [G38T C40G] | 0.82
GAGACCGCAACTGAAAAGTTGTTATCACTTGTCGTAATATACTTTGGATGGGTTGAAGTTCTGCACGTAGAAGCAAAAGGC [G38T C40T] | 0.805
GAGACCGCAACTGAAAAGTTGTTATCACTTGTCGTAATACAATTTGGATGGGTTGAAGTTCTGCACGTAGAAGCAAAAGGC [G38T C42A] | 0.842
GAGACCGCAACTGAAAAGTTGTTATCACTTGTCGTAATACAGTTTGGATGGGTTGAAGTTCTGCACGTAGAAGCAAAAGGC [G38T C42G] | 0.845
GAGACCGCAACTGAAAAGTTGTTATCACTTGTCGTAATACATTTTGGATGGGTTGAAGTTCTGCACGTAGAAGCAAAAGGC [G38T C42T] | 0.851
GAGACCGCAACTGAAAAGTTGTTATCACTTGTCGTAATACACTTTAGATGGGTTGAAGTTCTGCACGTAGAAGCAAAAGGC [G38T G46A] | 0.801
